Results: the RNAGym collection of RNA variant scans (doi:10.1093/nar/gkz1192)

B1: CPEB3 Ribozyme (parent)
chain: UAACAGGGGGCCACAGCAGAAGCGUUCACGUCGCAGCCCCUGUCAGAUUCUGGUGAAUCUGCGAAUUCUGCUGUAUAUCUC

Variants of: B1
Assay: self-cleavage, relative activity (ratio to wild type); higher = more cleavage; in vitro, sequencing
Method in brief: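 Libraries of CPEB3 self-cleaving ribozyme mutants came from rounds of error-prone PCR and carried barcodes, which DNA sequencing matched to variants. In vitro transcription used T7 RNA polymerase at 37°C for 5 hours, with a further 15 min in DNase I before EDTA stopped the reaction; the ribozymes cleaved during both steps. The RNA was reverse transcribed with template switching and sequenced on Illumina. Relative activity is the cleaved/total read fraction of a variant divided by that of the unmutated ribozyme, averaged over three batches with at least 5 reads.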
For UAACAGGGGGCCACAGCAGAAGCGUUCACGUCGCAGCCCCUGUCAGAUUCUGGCGAUUCUGCGAAUUCUGCUGUAUAUCUC, the self-cleavage was 0.56. UAACAGGGGGCCACAGCAGAAGCGUUCACGUCGCAGCCCCUGUCAGAUUCUGGCGACUCUGCGAAUUCUGCUGUAUAUCUC showed a self-cleavage of 0.23. For UAACAGGGGGCCACAGCAGAAGCGUUCACGUCGCAGCCCCUGUCAGAUUCUGGCGAGUCUGCGAAUUCUGCUGUAUAUCUC, the self-cleavage was 0.66. In the case of UAACAGGGGGCCACAGCAGAAGCGUUCACGUCGCAGCCCCUGUCAGAUUCUGGCGGAUCUGCGAAUUCUGCUGUAUAUCUC, the self-cleavage is reported as 0.64. For UAACAGGGGGCCACAGCAGAAGCGUUCACGUCGCAGCCCCUGUCAGAUUCUGGCGCAUCUGCGAAUUCUGCUGUAUAUCUC, the self-cleavage was 0.38. With UAACAGGGGGCCACAGCAGAAGCGUUCACGUCGCAGCCCCUGUCAGAUUCUGGCGUAUCUGCGAAUUCUGCUGUAUAUCUC the self-cleavage was 0.52. UAACAGGGGGCCACAGCAGAAGCGUUCACGUCGCAGCCCCUGUCAGAUUCUGGCGAAUCUGCGAAUUCUACUGUAUAUCUC gave a self-cleavage of 0.43. Variant UAACAGGGGGCCACAGCAGAAGCGUUCACGUCGCAGCCCCUGUCAGAUUCUGGCGAAUCUGCGAAUCCUGCUGUAUAUCUC has a self-cleavage of 0.26. With UAACAGGGGGCCACAGCAGAAGCGUUCACGUCGCAGCCCCUGUCAGAUUCUGGCGAAUCUGCGAAUACUGCUGUAUAUCUC the self-cleavage was 0.48. Work on UAACAGGGGGCCACAGCAGAAGCGUUCACGUCGCAGCCCCUGUCAGAUUCUGGCGAAUCUGCGAAUUCUGCUAUAUAUCUC yielded a self-cleavage of 1.26. UAACAGGGGGCCACAGCAGAAGCGUUCACGUCGCAGCCCCUGUCAGAUUCUGGCGAAUCUGCGAAUUCUGCUUUAUAUCUC showed a self-cleavage of 1.22. Variant UAACAGGGGGCCACAGCAGAAGCGUUCACGUCGCAGCCCCUGUCAGAUUCUGGCGAAUCUGCGAAUUCUGCUCUAUAUCUC has a self-cleavage of 1.33. Work on UAACAGGGGGCCACAGCAGAAGCGUUCACGUCGCAGCCCCUGUCAGAUUCUGGAGAAUCUGCGAAUUCUGCCGUAUAUCUC yielded a self-cleavage of 1.17. Variant UAACAGGGGGCCACAGCAGAAGCGUUCACGUCGCAGCCCCUGUCAGAUUCUGGAGAAUCUGCGAAUUCUGCAGUAUAUCUC has a self-cleavage of 1.02. UAACAGGGGGCCACAGCAGAAGCGUUCACGUCGCAGCCCCUGUCAGAUUCUGGAGAAUCUGCGAAUUCUGCGGUAUAUCUC showed a self-cleavage of 0.87. UAACAGGGGGCCACAGCAGAAGCGUUCACGUCGCAGCCCCUGUCAGAUUCUGGCGAAUCUGCGAAUUCUGCUGUUUAUCUC gave a self-cleavage of 1.2. UAACAGGGGGCCACAGCAGAAGCGUUCACGUCGCAGCCCCUGUCAGAUUCUGGCGAAUCUGCGAAUUCUGCUGUGUAUCUC showed a self-cleavage of 0.88. UAACAGGGGGCCACAGCAGAAGCGUUCACGUCGCAGCCCCUGUCAGAUUCUGGCGAAUCUGCGAAUUCUGAUGUAUAUCUC gave a self-cleavage of 0.39. In the case of UAACAGGGGGCCACAGCAGAAGCGUUCACGUCGCAGCCCCUGUCAGAUUCUGGCGAAUCUGCGAAUUCUGUUGUAUAUCUC, the self-cleavage is reported as 0.72. UAACAGGGGGCCACAGCAGAAGCGUUCACGUCGCAGCCCCUGUCAGAUUCUGGCGAAUCUGCGAAAUCUGCUGUAUAUCUC gave a self-cleavage of 0.52. In the case of UAACAGGGGGCCACAGCAGAAGCGUUCACGUCGCAGCCCCUGUCAGAUUCUGGCGAAUCUGCGAACUCUGCUGUAUAUCUC, the self-cleavage is reported as 0.37. UAACAGGGGGCCACAGCAGAAGCGUUCACGUCGCAGCCCCUGUCAGAUUCUGGCGAAUCUGCGAAGUCUGCUGUAUAUCUC gave a self-cleavage of 0.39. In the case of UAACAGGGGGCCACAGCAGAAGCGUUCACGUCGCAGCCCCUGUCAGAUUCUGGCGAAUUUGCGAAUUCUGCUGUAUAUCUC, the self-cleavage is reported as 0.68. Variant UAACAGGGGGCCACAGCAGAAGCGUUCACGUCGCAGCCCCUGUCAGAUUCUGGCGAAUAUGCGAAUUCUGCUGUAUAUCUC has a self-cleavage of 0.3. UAACAGGGGGCCACAGCAGAAGCGUUCACGUCGCAGCCCCUGUCAGAUUCUGGCGAAUCUGCGAAUUCUGCUGUAUAUCUC showed a self-cleavage of 1.02. For UAACAGGGGGCCACAGCAGAAGCGUUCACGUCGCAGCCCCUGUCAGAUUCUGGCGAACCUGCGAAUUCUGCUGUAUAUCUC, the self-cleavage was 0.48. With UAACAGGGGGCCACAGCAGAAGCGUUCACGUCGCAGCCCCUGUCAGAUUCUGGCGAAACUGCGAAUUCUGCUGUAUAUCUC the self-cleavage was 0.33. UAACAGGGGGCCACAGCAGAAGCGUUCACGUCGCAGCCCCUGUCAGAUUCUGGCGAAUCUCCGAAUUCUGCUGUAUAUCUC gave a self-cleavage of 0.3. With UAACAGGGGGCCACAGCAGAAGCGUUCACGUCGCAGCCCCUGUCAGAUUCUGGCGAAUCUACGAAUUCUGCUGUAUAUCUC the self-cleavage was 0.65. Variant UAACAGGGGGCCACAGCAGAAGCGUUCACGUCGCAGCCCCUGUCAGAUUCUGGAGAAUCUGCGAAUUCUGCUGCAUAUCUC has a self-cleavage of 1.28. With UAACAGGGGGCCACAGCAGAAGCGUUCACGUCGCAGCCCCUGUCAGAUUCUGGAGAAUCUGCGAAUUCUGCUGGAUAUCUC the self-cleavage was 1.3. For UAACAGGGGGCCACAGCAGAAGCGUUCACGUCGCAGCCCCUGUCAGAUUCUGGAGAAUCUGCGAAUUCUGCUGAAUAUCUC, the self-cleavage was 1.22. For UAACAGGGGGCCACAGCAGAAGCGUUCACGUCGCAGCCCCUGUCAGAUUCUGGAGAAUCUGCGAAUUCUGCUGUAUAUCAC, the self-cleavage was 1.21. UAACAGGGGGCCACAGCAGAAGCGUUCACGUCGCAGCCCCUGUCAGAUUCUGGAGAAUCUGCGAAUUCUGCUGUAUAUCCC gave a self-cleavage of 1.14. For UAACAGGGGGCCACAGCAGAAGCGUUCACGUCGCAGCCCCUGUCAGAUUCUGGCGAAUCUGCGAAUUUUGCUGUAUAUCUC, the self-cleavage was 1.09. UAACAGGGGGCCACAGCAGAAGCGUUCACGUCGCAGCCCCUGUCAGAUUCUGGCGAAUCUGCGAAUUAUGCUGUAUAUCUC gave a self-cleavage of 0.43. UAACAGGGGGCCACAGCAGAAGCGUUCACGUCGCAGCCCCUGUCAGAUUCUGGCGAAUCUGCGAAUUGUGCUGUAUAUCUC showed a self-cleavage of 0.29. UAACAGGGGGCCACAGCAGAAGCGUUCACGUCGCAGCCCCUGUCAGAUUCUGGCGAAUCUGCGCAUUCUGCUGUAUAUCUC showed a self-cleavage of 0.46. UAACAGGGGGCCACAGCAGAAGCGUUCACGUCGCAGCCCCUGUCAGAUUCUGGCGAAUCUGCGUAUUCUGCUGUAUAUCUC gave a self-cleavage of 0.36. Work on UAACAGGGGGCCACAGCAGAAGCGUUCACGUCGCAGCCCCUGUCAGAUUCUGGCGAAUCUGCGGAUUCUGCUGUAUAUCUC yielded a self-cleavage of 0.86. With UAACAGGGGGCCACAGCAGAAGCGUUCACGUCGCAGCCCCUGUCAGAUUCUGGCGAAUCUGCGAAUUCUGCUGUAUAUAUC the self-cleavage was 1.18. With UAACAGGGGGCCACAGCAGAAGCGUUCACGUCGCAGCCCCUGUCAGAUUCUGGAGAAUCUGCGAAUUCGGCUGUAUAUCUC the self-cleavage was 0.92. Work on UAACAGGGGGCCACAGCAGAAGCGUUCACGUCGCAGCCCCUGUCAGAUUCUGGAGAAUCUGCGAAUUCCGCUGUAUAUCUC yielded a self-cleavage of 0.63. UAACAGGGGGCCACAGCAGAAGCGUUCACGUCGCAGCCCCUGUCAGAUUCUGGCGAAUCUGCGAAUUCUGCUGUAUAUCUU gave a self-cleavage of 1.17. In the case of UAACAGGGGGCCACAGCAGAAGCGUUCACGUCGCAGCCCCUGUCAGAUUCUGGCGAAUCUGCGAAUUCUGCUGUAUAUCUG, the self-cleavage is reported as 1.3. For UAACAGGGGGCCACAGCAGAAGCGUUCACGUCGCAGCCCCUGUCAGAUUCUGGAGAAUCUGCGAAUUCUGCUGUAUAACUC, the self-cleavage was 1.19. For UAACAGGGGGCCACAGCAGAAGCGUUCACGUCGCAGCCCCUGUCAGAUUCUGGAGAAUCUGCGAAUUCUGCUGUAUACCUC, the self-cleavage was 1.05. In the case of UAACAGGGGGCCACAGCAGAAGCGUUCACGUCGCAGCCCCUGUCAGAUUCUGGCGAAUCUGCUAAUUCUGCUGUAUAUCUC, the self-cleavage is reported as 1.13. UAACAGGGGGCCACAGCAGAAGCGUUCACGUCGCAGCCCCUGUCAGAUUCUGGCGAAUCUGCCAAUUCUGCUGUAUAUCUC showed a self-cleavage of 1.01. UAACAGGGGGCCACAGCAGAAGCGUUCACGUCGCAGCCCCUGUCAGAUUCUGGCGAAUCUGCAAAUUCUGCUGUAUAUCUC showed a self-cleavage of 0.73. With UAACAGGGGGCCACAGCAGAAGCGUUCACGUCGCAGCCCCUGUCAGAUUCUGGCGAAUCGGCGAAUUCUGCUGUAUAUCUC the self-cleavage was 0.5. Work on UAACAGGGGGCCACAGCAGAAGCGUUCACGUCGCAGCCCCUGUCAGAUUCUGGCGAAUCAGCGAAUUCUGCUGUAUAUCUC yielded a self-cleavage of 0.42. UAACAGGGGGCCACAGCAGAAGCGUUCACGUCGCAGCCCCUGUCAGAUUCUGGCGAAUCCGCGAAUUCUGCUGUAUAUCUC gave a self-cleavage of 0.39. For UAACAGGGGGCCACAGCAGAAGCGUUCACGUCGCAGCCCCUGUCAGAUUCUGGCGAAUCUGCGAGUUCUGCUGUAUAUCUC, the self-cleavage was 0.49. In the case of UAACAGGGGGCCACAGCAGAAGCGUUCACGUCGCAGCCCCUGUCAGAUUCUGGCGAAUCUGCGAUUUCUGCUGUAUAUCUC, the self-cleavage is reported as 0.32. With UAACAGGGGGCCACAGCAGAAGCGUUCACGUCGCAGCCCCUGUCAGAUUCUGGCGAAUCUGCGACUUCUGCUGUAUAUCUC the self-cleavage was 0.4. Variant UAACAGGGGGCCACAGCAGAAGCGUUCACGUCGCAGCCCCUGUCAGAUUCUGGCGAAUCUGCGAAUUCUGCUGUAUCUCUC has a self-cleavage of 0.87. UAACAGGGGGCCACAGCAGAAGCGUUCACGUCGCAGCCCCUGUCAGAUUCUGGCGAAUCUGCGAAUUCUGCUGUAUUUCUC showed a self-cleavage of 1.07. With UAACAGGGGGCCACAGCAGAAGCGUUCACGUCGCAGCCCCUGUCAGAUUCUGGCGAAUCUGCGAAUUCUGCUGUAUGUCUC the self-cleavage was 1.07. Variant UAACAGGGGGCCACAGCAGAAGCGUUCACGUCGCAGCCCCUGUCAGAUUCUGGCUAAUCUGCGAAUUCUGCUGUAUAUCUC has a self-cleavage of 0.78. Work on UAACAGGGGGCCACAGCAGAAGCGUUCACGUCGCAGCCCCUGUCAGAUUCUGGCAAAUCUGCGAAUUCUGCUGUAUAUCUC yielded a self-cleavage of 0.62. For UAACAGGGGGCCACAGCAGAAGCGUUCACGUCGCAGCCCCUGUCAGAUUCUGGCGAAUCUGUGAAUUCUGCUGUAUAUCUC, the self-cleavage was 0.18. Variant UAACAGGGGGCCACAGCAGAAGCGUUCACGUCGCAGCCCCUGUCAGAUUCUGGCGAAUCUGAGAAUUCUGCUGUAUAUCUC has a self-cleavage of 0.13. UAACAGGGGGCCACAGCAGAAGCGUUCACGUCGCAGCCCCUGUCAGAUUCUGGCGAAUCUGGGAAUUCUGCUGUAUAUCUC showed a self-cleavage of 0.13. UAACAGGGGGCCACAGCAGAAGCGUUCACGUCGCAGCCCCUGUCAGAUUCUGGAGAAUCUGCGAAUUCUGCUGUACAUCUC showed a self-cleavage of 1.04. For UAACAGGGGGCCACAGCAGAAGCGUUCACGUCGCAGCCCCUGUCAGAUUCUGGAGAAUCUGCGAAUUCUGCUGUAAAUCUC, the self-cleavage was 1.13. In the case of UAACAGGGGGCCACAGCAGAAGCGUUCACGUCGCAGCCCCUGUCAGAUUCUGGCGAAUCUGCGAAUUCAGCUGUAUAUCUC, the self-cleavage is reported as 0.57. UAACAGGGGGCCACAGCAGAAGCGUUCACGUCGCAGCCCCUGUCAGAUUCUGGCGAAUCUGCGAAUUCCGCUGUAUAUCUC gave a self-cleavage of 0.52.
